These results are taken from publication PMC4046932.

The assay addresses Neisseria gonorrhoeae MtrD inner membrane multidrug efflux pump (Neisseria gonorrhoeae) (UniProt Q51073). In words: crystal structure; sitting-drop vapor diffusion at room temperature; 20 mg/ml MtrD in 20 mM Na-HEPES pH 7.5, 0.05% Cymal-6; reservoir 30% PEG 400, 0.1 M Na-Bicine pH 8.5, 0.1 M NH4Cl, 0.05 M BaCl2, 9% glycerol; space group R32, one protomer per asymmetric unit; 3.53 Å.

In general, stoichiometry N refers to the number of molecules, sites or subunits per partner or assembly. “Neisseria gonorrhoeae MtrD inner membrane multidrug efflux pump (from UniProt Q51073 1-1067) (natural protein)” displayed a stoichiometry N of 3.
